Literature values in article PMC4166557.

Molecular target: MLL MBM1 4-15 (Homo sapiens) (UniProt Q03164)

Kd: 56 nM
Substance: menin (from UniProt O00255)
